{"source": "patent US20250179196A1", "about": "(Janssen / Centocor, published 2025)", "binders": {"B1": {"name": "I23RB36 (antibody, mouse IgG2a, kappa, V domains shown)", "VH": "QIQLVQSGAELVKPGASVKLSCTTSGFNIKDTYIHWMKQRPEQGLEWIGRIDPANGNTIYASKFQGKATLTTDTSSNTAYMLLSSLTSGDTAVYYCTRGTSWFAYWGQGTTVTVSS", "VL": "DIVMTQSPKSMSMSVGERVTLSCKASENVGTSVSWFQQKPEQSPKLLIYGASNRYTGVPDRFTGSGSATDFTLTISSVQAEDLADYHCGQSYSYPRTFGGGTKLEIKR", "notes": "immunization; mouse IgG2a/kappa"}, "B2": {"name": "I23RB31 (antibody, mouse IgG2a, kappa, V domains shown)", "VH": "EFQLQQSGAEMVRPGASVKLSCKASGYTFTGYWMNWVKQRPGQGLEWIGKIDPSDTETHYNQNFKDKATLTVDKSSSTAYMQLNSLTSEDSAVYYCARWGLGRNFAMDYWGQGTTLTVSS", "VL": "DIVLTQSPATLSVTPGDRVSLSCRASQSISDHLHWYQQKSHESPRLLIKFASQSISGIPSRFSGSGSGSDFTLSIDSVEPEDVGVYYCQNGHSFPLTFGSGTKLEIKR", "notes": "as for B1"}, "B3": {"name": "I23RB27 (antibody, mouse IgG2a, kappa, V domains shown)", "VH": "QVQLKESGPDLVQPSQTLSLTCTVSGFSLTSYGVHWVRQPPGKGLEWVGTLGWDDKKSYNSALKSRLSISRDTSKSQVFLKLSSLQTEDTAMYYCTKEDVSYAMDFWGQGTTLTVSS", "VL": "DIQMTQSPTSLAVSLGQRATISCRASESVEYYGTSLMHWYQQKPGQPPKLLIYAASNVESGVPARFSGSGSGTDFSLNIHPVEEEDIAMYFCQQGKKVPWTFGAGTKLEMKR", "notes": "as for B1"}, "B4": {"name": "I23RB188 (antibody, mouse IgG2a, kappa, V domains shown)", "VH": "QIQLVQSGPELKKPGETVKISCKASGYTFTNYGMNWVKQAPGKGLKWMGWINTYTGAPTYADDFKGRFAFSLETSASTAYLQINNFKNEDTATYFCARGNGYPYYYGINYWGQGTSVTVSS", "VL": "DVQMIQSPSSLSASLGERVSLTCRASQEISGNLSWLQQKPDGTIKRLIYAASTLDSGVPKRFSGSRSGSDYSLTISSLESEDFADYYCLQYASYPWTFGAGTRLEIKR", "notes": "as for B1"}, "B5": {"name": "I23RB182 (antibody, mouse IgG2a, kappa, V domains shown)", "VH": "EVQLQQSGPGLVKPSQSLSLTCSVTGYSITSGYFWNWLRQFPGSKLEWMGFIDNDGSNDYNPSLKNRISITRDTSKNQFFLRLNSVTTEDTATYYCARGRLGFFDSWGPGTTLTVSS", "VL": "DIVMTQSPAIMSASLGEKVTMSCRASSSVNYMYWYQQKSDASPKLWIYYTSNLAPGVPARFSGSGSGNSYSLTISSMEGEDAATYYCQQFTNSPWTFGAGTKLELKR", "notes": "as for B1"}, "B6": {"name": "I23RB173 (antibody, mouse IgG2a, kappa, V domains shown)", "VH": "DVQLQESGPGLVKPSQSLSLTCSVTGYSITSGYYWNWIRQFPGNKLEWMGYISYDGGNNYNPSLKNRISITRDTSKNQFFLKLNSVTTEDTATYYCARDAGLLPYYAMDYWGQGTTLTVSS", "VL": "DIKMTQSPAIMSASPGEKVTITCSASSSVSYMHWFQQKPGTSPKLWIYSTSNLASGVPARFSGSGSGTSYSLTISRMEAEDAATYYCQQRSSYPLTFGDGTKLEMKR", "notes": "as for B1"}, "B7": {"name": "I23RB169 (antibody, mouse IgG2a, kappa, V domains shown)", "VH": "QIQLVQSGPELKKPGETVKISCKASGYTFTTVGMQWVQKMPGKGFKWIGWINTHSGEPKYTDDFKGRFAFSLETSASTAYLQISNLKSEDTATYFCARSSALTGAFAYWGQGTLVTVSS", "VL": "DIKMTQSPASLAVSLGQRATISCRASKSVSTSDYSYMHWYQQKPGQPPKLLIYLASNLESGVPARFSGSGSGTDFTLNIHPVEEEDAATYYCQHSRELPRTFGAGTKLELKR", "notes": "as for B1"}, "B8": {"name": "I23RB168 (antibody, mouse IgG2a, kappa, V domains shown)", "VH": "QIQLVQSGPELVKPGASVKMSCKTSGYTFTDYYINWVKQRPGQGLEWIGWIYPAINNTNYNEKFKGKATLTVDTSSRTAYMQLNSLTSEDSAVYFCAISRKPYFDYWGQGTTLTVSS", "VL": "DIQMTQSSSSFSVSLGDRVTITCKASEDLYNRLAWYQQKPGNAPRLLISGATSLGTGVLSRFSGSGSGKDYTLSITSLQTEDVATYYCQQYWSIPWTFGAGTKLELKR", "notes": "as for B1"}, "B9": {"name": "I23RB166 (antibody, mouse IgG2a, kappa, V domains shown)", "VH": "DVQLQESGPGLVKPSQTVSLTCTVTGYSITNGNHWWNWIRQVSGSKLEWIGYIRSSGSTDSNPSLKSRISITRDTSKNQLFLQLNSVTAEDIATYYCARERLRLRWSYFDYWGQGTTLTVSS", "VL": "DIVMTQSHKFMSTSVGARVSITCKASQDVSTAVAWYQQKPGQSPKLLIYSASYRYTGVPDRFTGSGSGTDFTFTISSVQAEDLAVYYCQQHYSTPRTFGGGTKLEIKR", "notes": "as for B1"}, "B10": {"name": "I23RB165 (antibody, mouse IgG2a, kappa, V domains shown)", "VH": "EVQLQQSGAELVRPGASVKLSCTASGFNIKDSLMHWVKQRPEQGLEWIGWIDPEDGKTKYAPKFQDKATITADTSSNTAYLQLSSLTSEDTAIYYCARREVLDYFDYWGQGTTLTVSS", "VL": "B7 VL with K3V, D33G, R100L, L110M", "notes": "as for B1"}, "B11": {"name": "I23RB162 (antibody, mouse IgG2a, kappa, V domains shown)", "VH": "EFQLQQSGPELVKPGASVKMSCKASGYTFTNYVMHWVKQKPGQGLEWIGYINPYNDGTKYNEKFKGKATLTSDKSSSTAYMELSSLTSEDSAVYYCARSRTGTRWYFDVWGAGTTVTVSS", "VL": "DIVMTQSQKFMSTSVGDRVSVTCKASQNVGTNVAWYQQKPGQSPKALIYSASYRYSGVPDRFTGSGSGTDFTLTISNVQSEDLAEYFCQQYNSYPFTFGSGTKLEIKR", "notes": "as for B1"}, "B12": {"name": "I23RB160 (antibody, mouse IgG2a, kappa, V domains shown)", "VH": "QVQLKESGPDLVKPSQSLSLTCTVTGYSITSGYNWHWIRQFPGNKLEWMGYIHYSSGTIYNPSLKSRISITRDTSKNQFFLQLNSVTTEDTGTYYCARQLGLKAMDYWGQGTSVTVSS", "VL": "B9 VL with A17D, S30R, Y49H, A80V, S93T, R96Y, G100S", "notes": "as for B1"}, "B13": {"name": "I23RB156 (antibody, mouse IgG2a, kappa, V domains shown)", "VH": "QVQLKESGPGLVAPSQSLSITCTVSGFSLTSYAINWVRQPPGKGLEWLGVIWTGGGTNYNSVFKSRLSISKDNSKSQIFLKMISLQTDDTARYYCARNRDYSNYRWYFDVWGAGTTLTVSS", "VL": "B9 VL with A17D, Q42R, S52F, S76G, T94I, R96L, G100A, I106L", "notes": "as for B1"}, "B14": {"name": "I23RB155 (antibody, mouse IgG2a, kappa, V domains shown)", "VH": "QVQLKESGPGLVKPSQSLSLTCSVTGYSITSGHSWNWIRQFPGNKLEWMGYISYDGTNDYNPSLKNRISITRDTSKNQFFLNLNSVTTEDTVTYYCARGGGYYGGTYRVFADWGQGTTLTVSS", "VL": "QIVLSQSPASLAVSLGQRATISCRTSESVDTYGNSFIYWYQQKPGQPPKLLIYRASNLESGIPARFSGSGSRTDFTLTINPVEADDVATYYCQQGNKDPYTFGSGTKLEMKR", "notes": "as for B1"}, "B15": {"name": "I23RB150 (antibody, mouse IgG2a, kappa, V domains shown)", "VH": "QIQLVQSGPELKKPGETVKISCKASAYTFTNYGMNWVKQAPGKGLKWMGWIKTNTGEPTYAEEFKGRFAFSLETSASTAYLQINNLKNEDTATYFCARSRQLGLRYYFDYWGQGTTLTVSS", "VL": "B9 VL with A17G, K45R, Y86F, R96Y, G100S, K103R", "notes": "as for B1"}, "B16": {"name": "I23RB148 (antibody, mouse IgG2a, kappa, V domains shown)", "VH": "DVQLQESGPDLVKPSQSLSLTCTVTGYSITSGYNWHWIRQFPGNKLEWMGYIHSSGTTNYSPSLRSRLSITRDTSKNQFFLQLNSVTTEDTATYYCTRQLGLKAMEYWGQGTTLTVSS", "VL": "B9 VL with A17D, I21L, D28E, S30R, S43P, S76I, S93T, R96Y, T97S, G100S", "notes": "as for B1"}}, "note": "Positions count from the first letter of the chain named."}
{"biological_target": "T1, human IL-23R expressed on the cell surface of stably transfected iLite and HEK cell lines (human, UniProt Q5VWK5 24-629)", "T1 construct": "whole, on cells; Same receptor on two transfected cell lines; the cell line is named under assay; also called human IL-23R iLite cells; human IL-23R HEK cells", "T1 sequence (looked up)": "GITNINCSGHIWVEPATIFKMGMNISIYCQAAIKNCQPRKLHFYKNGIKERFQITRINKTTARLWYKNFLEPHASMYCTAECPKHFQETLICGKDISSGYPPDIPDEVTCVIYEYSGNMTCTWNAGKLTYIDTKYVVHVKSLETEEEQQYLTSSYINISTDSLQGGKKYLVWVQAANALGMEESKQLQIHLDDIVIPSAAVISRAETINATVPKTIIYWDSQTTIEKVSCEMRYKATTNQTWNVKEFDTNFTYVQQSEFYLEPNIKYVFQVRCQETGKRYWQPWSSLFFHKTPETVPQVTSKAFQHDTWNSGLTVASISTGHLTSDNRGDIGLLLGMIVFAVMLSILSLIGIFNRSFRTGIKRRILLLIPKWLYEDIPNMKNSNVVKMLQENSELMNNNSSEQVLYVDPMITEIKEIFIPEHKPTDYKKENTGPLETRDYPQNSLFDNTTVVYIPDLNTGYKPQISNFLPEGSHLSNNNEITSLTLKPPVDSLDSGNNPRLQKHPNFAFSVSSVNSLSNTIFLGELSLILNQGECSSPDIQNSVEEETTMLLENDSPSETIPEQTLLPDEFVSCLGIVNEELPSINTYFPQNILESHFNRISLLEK", "test": "flow cytometry on human IL-23R HEK cells, Expt D (8-point, 96well)", "how_it_was_run": "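Serially diluted IL-23R mAbs bound to mixed HEK-IL-23R and parental HEK cells for 30 min at 37 °C, in duplicate. After washes, 647 detection antibody geometric MFI measured on single viable (Sytox Green-negative) cells and fitted to a variable-slope dose-response against log mAb concentration.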", "units": {"EC50": "nM"}}
{"binder": "B1", "EC50": 0.4}
{"binder": "B2", "EC50": 1.7}
{"binder": "B3", "EC50": 3.5}
{"binder": "B4", "EC50": 2}
{"binder": "B5", "EC50": 36.4}
{"binder": "B6", "EC50": 0.4}
{"binder": "B7", "EC50": 0.7}
{"binder": "B8", "EC50": 3.4}
{"binder": "B9", "EC50": 0.3}
{"binder": "B10", "EC50": 0.6}
{"binder": "B11", "EC50": 0.1}
{"binder": "B12", "EC50": 0.4}
{"binder": "B13", "EC50": 0.4}
{"binder": "B14", "EC50": 0.9}
{"binder": "B15", "EC50": 0.8}
{"binder": "B16", "EC50": 0.3}
{"biological_target": "T1, human IL-23R expressed on the cell …", "test": "flow cytometry on human IL-23R HEK cells, Expt E (11-point, 384well)", "how_it_was_run": "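Antibody bound to HEK-IL-23R cells 30 min at 37 °C over 11 concentrations; after washes, Sytox Green added and cells run on iQue. Geometric MFI of 647 detection antibody on single viable cells fitted by variable-slope dose–response.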", "units": {"EC50": "nM", "MFI (6.4 nM)": "MFI"}}
{"binder": "B1", "EC50": 7.3, "MFI (6.4 nM)": 171000}
{"binder": "B2", "EC50": "> 50", "MFI (6.4 nM)": 78600}
{"binder": "B3", "EC50": "> 50", "MFI (6.4 nM)": 153000}
{"binder": "B4", "EC50": "> 50", "MFI (6.4 nM)": 90100}
{"binder": "B5", "EC50": "> 50", "MFI (6.4 nM)": 26200}
{"binder": "B6", "EC50": 7.4, "MFI (6.4 nM)": 100000}
{"binder": "B7", "EC50": 15.4, "MFI (6.4 nM)": 132000}
{"binder": "B8", "EC50": 22.1, "MFI (6.4 nM)": 73000}
{"binder": "B9", "EC50": 11.6, "MFI (6.4 nM)": 198000}
{"binder": "B10", "EC50": 9.7, "MFI (6.4 nM)": 116000}
{"binder": "B11", "EC50": 2.8, "MFI (6.4 nM)": 269000}
{"binder": "B12", "EC50": 5.6, "MFI (6.4 nM)": 185000}
{"binder": "B13", "EC50": 8.9, "MFI (6.4 nM)": 174000}
{"binder": "B14", "EC50": 10.1, "MFI (6.4 nM)": 177000}
{"binder": "B15", "EC50": 16.2, "MFI (6.4 nM)": 103000}
{"binder": "B16", "EC50": 6, "MFI (6.4 nM)": 203000}
